Reference: patent publication US9327008B2, “Cell-permeant peptide-based inhibitor of kinases” (Purdue Research Foundation, priority 2008, dated 2016)

Assays:
Format in all cases: biochemical
GSK3β = biological target: T1, GSK3β (Homo sapiens, UniProt P49841); experiment: Millipore radiometric kinase activity assay, GSK3β (h)
T1 construct: purchased Millipore (assay service)
Method: (§1) A commercial radiometric assay service (Millipore, Billerica, Mass.) was used to test the specificity and potency of peptides containing a coupled transduction domain and therapeutic domain, hereinafter “complete peptides”). In these assays, if the kinase is not inhibited by an inhibitor peptide, a positively charged substrate is phosphorylated with a radiolabeled phosphate group from an ATP.
In a final reaction volume of 25 μL, GSK3β (h) (5-10 mU) is incubated with 8 mM MOPS pH 7.0, 0.2 mM EDTA, 20 μM […](p)EDEEE [SEQ ID NO: 57] (phospho GS2 peptide), 10 mM MgAcetate and [γ-^33P-ATP] (specific activity approx. 500 cpm/pmol, concentration as required). The reaction is initiated by the addition of the MgATP mix. After incubation for 40 minutes at room temperature, the reaction is stopped by the addition of 5 μL of a 3% phosphoric acid solution. 10 μL of the reaction is then spotted onto a P30 filtermat and washed three times for 5 minutes in 50 mM phosphoric acid and once in methanol prior to drying and scintillation counting.
(§2) IC50 values for inhibitor peptides were determined using Millipore's IC50Profiler Express service. The IC50 value was estimated from a 10-point curve of one-half log dilutions. For peptides tested for specificity, the concentration of the peptides that inhibited approximately 95% of MK2 activity was chosen to profile against a battery of kinases related to MK2, cell viability, or human disease from MilliporeKinaseProfiler service. In both assays, compounds were supplied in dimethylsulfoxide (DMSO). Every kinase activity measurement was conducted in duplicate.
(§3) Therapeutic inhibitor peptides were assayed for activity against human kinases related to MK2, cell viability, or human disease. The assays were performed using concentrations of therapeutic inhibitor peptides that yielded 2% to 8% of normal MK2 activity. Error is reported as the standard deviation between 2 samples, and “c” is rat AMPK whereas all other kinases used are human kinases.

PhKγ2 = biological target: T2, PhKγ2 (Homo sapiens, UniProt P15735); experiment: Millipore radiometric kinase activity assay, PhKγ2 (h)
T2 construct: purchased Millipore (radiometric assay service)
T2 sequence (P15735 1-406): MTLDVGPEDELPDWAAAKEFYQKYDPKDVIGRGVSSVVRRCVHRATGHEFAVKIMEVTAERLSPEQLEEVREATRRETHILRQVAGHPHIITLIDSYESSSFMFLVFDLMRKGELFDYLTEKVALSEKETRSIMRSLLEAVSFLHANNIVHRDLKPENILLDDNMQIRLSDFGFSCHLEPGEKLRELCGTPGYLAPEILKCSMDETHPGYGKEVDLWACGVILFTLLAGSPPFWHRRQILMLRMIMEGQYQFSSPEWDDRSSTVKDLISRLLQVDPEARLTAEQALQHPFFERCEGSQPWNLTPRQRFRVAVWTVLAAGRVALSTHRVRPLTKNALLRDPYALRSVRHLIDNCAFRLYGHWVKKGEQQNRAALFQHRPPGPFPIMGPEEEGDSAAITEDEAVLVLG
Method: as §1
In a final reaction volume of 25 μL, PhKγ2 (h) (5-10 mU) is incubated with 8 mM MOPS pH 7.0, 0.2 mM EDTA, 250 μM […] [SEQ ID NO: 52], 10 mM MgAcetate and [γ-^33P-ATP] (specific activity approx. 500 cpm/pmol, concentration as required). The reaction is initiated by the addition of the MgATP mix. After incubation for 40 minutes at room temperature, the reaction is stopped by the addition of 5 μL of a 3% phosphoric acid solution. 10 μL of the reaction is then spotted onto a P30 filtermat and washed three times for 5 minutes in 75 mM phosphoric acid and once in methanol prior to drying and scintillation counting.
as §2, §3

MAPK1 = biological target: T3, MAPK1 (Homo sapiens, UniProt P27361); experiment: Millipore radiometric kinase activity assay, MAPK1 (h)
T3 construct: purchased Millipore (radiometric assay service)
T3 sequence (P27361 whole entry): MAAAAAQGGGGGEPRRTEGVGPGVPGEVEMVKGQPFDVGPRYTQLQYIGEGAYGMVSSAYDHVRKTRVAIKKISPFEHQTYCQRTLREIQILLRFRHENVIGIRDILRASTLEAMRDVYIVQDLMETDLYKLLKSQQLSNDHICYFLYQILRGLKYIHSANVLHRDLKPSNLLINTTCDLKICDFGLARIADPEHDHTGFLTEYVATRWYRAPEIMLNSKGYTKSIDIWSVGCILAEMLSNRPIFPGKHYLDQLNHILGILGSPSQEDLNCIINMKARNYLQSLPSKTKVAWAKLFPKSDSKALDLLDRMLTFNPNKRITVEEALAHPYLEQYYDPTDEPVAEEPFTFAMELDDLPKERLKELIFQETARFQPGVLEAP
Method: as §1
(§4) In a final reaction volume of 25 μL, MAPK1 (h) (5-10 mU) is incubated with 25 mM Tris pH 7.5, 0.02 mM EGTA, 250 μM peptide, 10 mM MgAcetate and [γ-^33P-ATP] (specific activity approx. 500 cpm/pmol, concentration as required). The reaction is initiated by the addition of the MgATP mix. After incubation for 40 minutes at room temperature, the reaction is stopped by the addition of 5 μL of a 3% phosphoric acid solution. 10 μL of the reaction is then spotted onto a P30 filtermat and washed three times for 5 minutes in 75 mM phosphoric acid and once in methanol prior to drying and scintillation counting.
as §2, §3

Syk = biological target: T4, Syk (Homo sapiens, UniProt P43405); experiment: Millipore radiometric kinase activity assay, Syk (h)
T4 construct: purchased Millipore (radiometric assay service)
Method: as §1
as §4, with “μL, Syk” for “μL, MAPK1”, “with 50” for “with 25”, “7.5, 0.1” for “7.5, 0.02”, “EGTA, 0.1 mM Na3VO4, 0.1% β-mercaptoethanol, 0.1 mg/mL poly(Glu, Tyr) 4:1,” for “EGTA, 250 μM peptide,”, “and [γ-^33PATP]” for “and [γ-^33P-ATP]”, “a Filtermat A” for “a P30 filtermat”
as §2, §3

EGFR = biological target: T5, EGFR (Homo sapiens, UniProt P00533); experiment: Millipore radiometric kinase activity assay, EGFR (h)
T5 construct: purchased Millipore (assay service)
Method: as §1
In a final reaction volume of 25 μL, EGFR (h) (5-10 mU) is incubated with 8 mM MOPS pH 7.0, 0.2 mM EDTA, 10 mM MnCl2, 0.1 mg/mL poly(Glu, Tyr) 4:1, 10 mM MgAcetate and [γ-^33P-ATP] (specific activity approx. 500 cpm/pmol, concentration as required). The reaction is initiated by the addition of the MgATP mix. After incubation for 40 minutes at room temperature, the reaction is stopped by the addition of 5 μL of a 3% phosphoric acid solution. 10 μL of the reaction is then spotted onto a Filtermat A and washed three times for 5 minutes in 75 mM phosphoric acid and once in methanol prior to drying and scintillation counting.
as §2, §3

T1 sequence (P49841 whole entry): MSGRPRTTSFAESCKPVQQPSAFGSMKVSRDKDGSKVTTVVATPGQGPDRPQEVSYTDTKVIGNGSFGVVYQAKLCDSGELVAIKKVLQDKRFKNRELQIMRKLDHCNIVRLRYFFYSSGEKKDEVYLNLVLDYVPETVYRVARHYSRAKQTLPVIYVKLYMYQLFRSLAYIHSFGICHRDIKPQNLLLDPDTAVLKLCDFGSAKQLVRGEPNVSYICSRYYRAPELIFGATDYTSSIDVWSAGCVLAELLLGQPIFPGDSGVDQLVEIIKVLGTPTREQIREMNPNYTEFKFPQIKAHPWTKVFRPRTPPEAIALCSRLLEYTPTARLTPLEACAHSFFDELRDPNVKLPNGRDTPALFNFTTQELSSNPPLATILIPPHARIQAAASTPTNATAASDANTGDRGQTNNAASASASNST

| Sequence | GSK3β Kinase Activity (%) (+SD %) (GSK3β; peptide 100 μM) | PhKγ2 Kinase Activity (%) (+SD %) (PhKγ2; peptide 100 μM) | MAPK1 Kinase Activity (%) (+SD %) (MAPK1; peptide 100 μM) | Syk Kinase Activity (%) (+SD %) (Syk; peptide 100 μM) | EGFR Kinase Activity (%) (+SD %) (EGFR; peptide 100 μM) | GSK3β Kinase Activity (%) (+SD %) (GSK3β; peptide 30 μM) | PhKγ2 Kinase Activity (%) (+SD %) (PhKγ2; peptide 30 μM) | MAPK1 Kinase Activity (%) (+SD %) (MAPK1; peptide 30 μM) | Syk Kinase Activity (%) (+SD %) (Syk; peptide 30 μM) | EGFR Kinase Activity (%) (+SD %) (EGFR; peptide 30 μM) |
| --- | --- | --- | --- | --- | --- | --- | --- | --- | --- | --- |
| KAFAKLAARLYRKALARQLGVAA | 184 (1) % | 27 (3) % | 108 (1) % | 4 (4) % | 16 (1) % | – | – | – | – | – |
| WLRRIKAWLRRIKALNRQLGVAA | 188 (4) % | 20 (0) % | 104 (3) % | 38 (9) % | 18 (2) % | 129 (2) % | 15 (0) % | 121 (5) % | 19 (3) % | 10 (4) % |
